# Test results as given in the domain aggregation screens of Martell et al. (2025).
# Assay: soluble fraction after stress (log2 fold change); higher = more stays soluble; pooled small domains, quantitative proteomics
# Details: stress: 50 degC
# Method in brief: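 After stress at 50°C, the amount of each protein still soluble was measured. This was done on pooled custom libraries of small protein domains, using high-throughput quantitative proteomics. The figure given is a base-two log fold change and stands for aggregation propensity, with higher values meaning more protein stays in solution.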
row,Sequence,soluble fraction (log2)
1,HMSENLESEFFGIVVITQTLLQKELRDKPMTVELIRKTVEDVMSKHYSDSSVDKAKVEEELIRRFSTW,-0.164
2,HMAKIDSRKALIDQLTTTFTRAQLEELITKNELSTDARFFLSQWNAKGWIRKTAKNVYEKLR,-0.134
3,HMSVDDYLKFSGSGTYWNTQDRGKTYLVNGQQRPLRDKEYLPDVMHRHVIDFITKHRDRPFYIYYSM,0.0643
4,HMTNVNSLIGKKAIVIQDIDNLKSTGQVKIGGEIWSAQSESNDIISKDTEVEIVKIDGVKLIVRLVPV,0.1
5,HMKEEVMVPNVVGKELSAALLEMQVKELYPKLQLKYSNFVDDKGTVLEQSPPAGSIVKAGRRINLVVSRGA,0.144
6,HMSATIMVLRASEDIPVGTEIKDNHLTTVEVGSYGLPEGAINDKDTVLGKVAQTNIIKGDYFFPQKLGG,0.152
7,HMRRRTLRQGATGSDVHAVQRLLNVDGAGLRTDGIFGPATERAVIAYQRKHGLAVDGVVGRETWTALLG,-0.61
8,HMSEEKLVFSIPDDIETMRIDKAIALETHLSRAQIAELFKENKILLNSKNSKRSEKVKPGDKISLEFIPKI,-0.00517
9,HMIITTPYKVTASAINIRSGRGTSYSIIGTVSKGQTVDVYNNSLSKGWVKVKFSGSVGYAYAKYLEK,-0.299
10,HMAATISPEIQAEAEKAAALGVESIKNFMASLKEKNPEQHALFSDSEKRRLYAIARKADLNTTQQG,-0.103
11,HMDPLADLFSRIRNAQMRNKKVVTSPASKLRAGILEVLAKEGYIRGYAMTQHASGKNELDIELN,-1
12,HMRSDHVFTSHLARRDKYISELESLSDSARDDHIQTIKEEDEYLLKYRRTRNLFGIPLNDEMKQFEPFNY,-0.131
13,HMDAPQRVTYLLPHSRGEVVSWLHRQGEVVAQEYEAEGVRVVVDLRYAQIRQAAKQFDVLPAEG,-0.0612
14,HMAENTKKWDETGRRYRSYIKLEKRLSENTVESYMRDYMQFAHFILRQWDVAPHKVEPQMVERYMAWLYER,-0.00858
15,HMSELPLTQKVAIVMVALGEEASGEVMKHLSDYEIEEITQAIAGLKNISVELMDQILEEYEQHLIAG,-0.459
16,HMLPGKEIPLPEFLREAFARNEPALENFQNLAPSYRRQYILWITSAKTPETVQKRISESIGLLKENRKLGM,0.0472
17,HMEEYLENLTQSKLLHMLDQLSPAYKTVFTLFVLDELSHEEISKMLNISIGTSKSNLFRARKVMRVLMESE,-0.397
18,HMLTTADLMMVHANSNKAIDYIVTDDNTKLTVDEPVTAKWITTADSIYRAVAYYNKVGDGKAQIVSVGN,0.0204
19,HMSTLKSALDEIPGIGAARKRALLNHFGSTRVISSVGVKDLEQVEGVSKKIALLIYGYFHDK,-2.06
20,HMAPLRTQYVNVNYANAAEIKTLISGADKEVGSLLSERGSVVVDKRTNTLIIQDTQARLNDIGDLIEQLD,-0.0505
21,HMGMAQELMESRLTAVFTSGKDQLAVLQRKDGSTLKLGADSKPWRIESFDGRKAVFVSADQQRVERLL,-0.209
22,HMLPELQPGQTFSARIQQALPDNTYRALVAGKQLTLQLPEGAKAGDELELVVLDRSARVIIARQVD,-0.146
23,HMKLSKLTKPELDEIFRNANFTEEEEKVFWLLARGKSLEQISAKTFLPIATVNRRVKSIKDKIG,0.0605

row,Sequence,soluble fraction (log2)
1,HMSALTELPVKTVNGKKYHYYVVKQHETVYALSKRFGITPEQLIKYNPSAEDGLQIDQELLFPATEI,0.161
2,HMEAPNELLVPEGARPARADRVLAAAFPEHSRTALQRAFDAGLVRRANLVLSRDTAVAGGDRIAFSLPAV,-0.00557
3,HMTSNKTVPYSELKGLISTGKIEYVGIGNTQIRAVSKSGAGIVTYTARRVIPDDTLIPELEKNGIAYGGI,-0.108
4,HMETFGEKDLDELIGRNVELITHDGKVREGLVDSVDRYNVSLVRYLDAGEVAMMVRRREVKAVRLK,0.0419
5,HMGSYANAWQLAEHAAKDMLGEVIYLLDGKEVHAGILETMSAESIKTASAENVDGKVVIRLVSK,-0.0617
6,HMQETIDVAALRVGMFVHLDLGWLAHPFPLSSFRISSEDQISTIRALGLKRVRWSSQHSELG,-1.11
7,HMLTRSTVNVETGTAAIGLGKLYGVYDMSRKGLKYSFSVDSDAMTKVMEMLLPLGIKSLTVEPPS,-1.57
8,HMSPGAKIEVTGNTVNLRAGPGTNYDTRGQVKKGEQLPLLGEQGGWYRVQTSRGVAYLAGWLARVLT,0.0409
9,HMGYGEQEQEAQKYLALHALMSQDPTLAKMYQAPNQYKLMSHVMEQNGIKNVNDYLTDPQQLP,-0.00068
10,HMPRKYFPFYFTFRETAQTMPPRLRAVFYEAIIEYGTTGKEPTLPKSIAGYWPLVKPTLDSAKAHYDAG,-0.831
11,HMVVYDAELLLNINPGMSYEEVKEMLGDPGMIIAGNDAENSVYRWSTGGISFMGRFENGALIRKSIISP,-0.621
12,HMVEVPEQLRDLLERSIEDLAELSVRSRNSLQKENIQTLGDLVQRTEEEMLGIENFGKKSLTEIAAFL,-0.101
13,HMRRTVIVTAAHAEIRERPDANAPLVFSAEQKVSLDYQETAPGGWVKVRHRDGQSGYVRTNQI,-0.688
14,HMQIKEVDYGTFISMTEDGEIGRVEIQQQENTILFTDEDETAVYKTAMVEDDQLTQRLYDAGISFYGEE,-0.0136
15,HMTGLFSPTEQTRHSKTGATLYSVKLAERIERNAFQSLKKRAKEHDGYYSSFTRSFLFDTPEDAEAFRGT,-0.27
16,HMANPFQELTERELDVLRQVAAGKNNREIAEALFIGEKTVKTHISNILSKLHLADRTQAAVYAWQQGMM,-0.0277
17,HMEAYLPVTVVSDGKILTGNLEKAGKNEKWLENVLSELKTDVKNTLLLTVDPKDGLIFYPKG,0.0932
18,HMNFKNMIDSLSGILFKKDPSAAIIDIGGVRLKVFITVGSYEQLPAKGEQVEILTYLHVKEDILNLYG,-0.242
19,HMATHWHITPNPNNGKFLISGLMQDDSFHLMDASGQWLRQLRTVNQELDLDLQPGVYFLKDNSGSVMKFVV,-0.98
20,HMPLDYNELRSISPKAARQAILQILAANKGNVSATAKLLGVSRKTVYKAMHKKASGNLDDTSRAPK,-0.851
21,HMSDPSAQADALFNEGKTAEAFNVLLRLIEDSPEDQREDYRVRLLDLFRIAGNTPEVKAARRRLSALLM,-0.252
22,HMKTILEKDQRLAKYISYLIKRKRLSPEQVIEHLKTDDHGYEKYPKSINTIYAAIDKGLIPSVTRQDM,-0.0163
23,HMAFAVWVKLVAIGPNYAQLEIEQGTQRNVRTLRPGDDAPEGVRLLSLTPTHAEVQANGIARKLALGQGMA,-0.381

row,Sequence,soluble fraction (log2)
1,HMGHASPGNREALQFALERHQARAAEFAEKAGLSIANASTKFKQLWEQGFLMRNESVADSGGVEFLYQR,-0.0221
2,HMQNMVYVATKDIPAGGVIDQDSVSKTAISTSIDTSLYITDDDLGKIAVVNISQGQSVFSNMVGT,0.0238
3,HMSLPAYIKISEVIARRINAGQILAGDRLPNERTMAVEFGVAVGTLRKALYHLQVRGLVTRKHGSGNYINK,-0.177
4,HMIPDGKWKEDPISDGQKNFINSLIEQAIDAGQDELGAEAKKYLASGEATKGNASAMIDKLKSAL,0.392
5,HMENDGQFLRAEREKYGLTLTDIYEHTHIPIKKLKAYEMWEEEMPPRTRALLELYFDQVAFEYDS,-0.8
6,HMATPYISMAGIGKSFGPVHALKSVNLTVYPGEIHALLGENGAGKSTLMKVLSGIHEPTKGTITINNIN,0.384
7,HMNRIKIYPTPGSKVLSIENINFSLIHDFKILDIFGREVKNFTVSSEKNTKMLVDTSKLSDGLYFIFFNTF,-0.58
8,HMEVSTRQVRAALRDIIEAEDKKRPLSDEAITARLREQGLPVARRTVAKYREQMGILAARLRK,-0.309
9,HMRDADRYAFMQENVEDFAKDMRRKHMTYDVLYEEYIRRTDNPYGYTQFKAIVQEYEKNHDYK,-0.141
10,HMIKIEDYTNKDYNKVEASLEVKGLVVNIEYKAVDDKAKYKGKEDLIIDQSVKKDATLVKGDTIILYLPK,-0.268
11,HMNEMEWVAKLIDQLPERERMILQLREIEQYEFDQIASLMEIPEGTVRVYLSRIRKKIKKQFIEIQSH,0.0739
12,HMLAGVDTLADRELEVFQMLGRGKSTKEIAQVLNLGESTVETYRARIKEKLQLRSAAELYLRAGQWVRDHG,-0.184
13,HMETQVKVPNVVGMTQSKAIAKLKESKLDYEVQEQKHDGDKGKVVDQSEAEGTYVDRGTKVIIYVSTGE,-0.088
14,HMAGPGAEVVDRLIAVLTGERPATAADQVLLSILKGLGIGGVVLPSERTGLGWSGLYQRVKEITDMN,-1.29
15,HMTPTITNALEEAEKAVSEVQEGKKEIELTPQGAYIRHLQHAIADRYGISSTSTGRDPKRKVIIY,-0.108
16,HMNISRESLIGQILATLNKNPEEGFNYKQIAKRLNITDSPGRQMISDLLRELSKHGSLQEISHGKYKIKV,-0.226
17,HMSTKRQKELLEYVDRFITEHGYGPSYREIMNAIGYKSVSTVAIHIDGLIAKGYLRKRDNSARSLEVV,-0.716
18,HMKIDLTPQEEKIYSVLETELTLDEIIMKTSIKAGEALAILMDLELKKLVASVAGGKYRRKA,0.0271
19,HMENQMIIYIDENDENKRLDSYLSEITPDYSRSKIQNFIKNGNVTVNDSNKKPSYLLKENDKISFELPQQ,0.00635
20,HMEITGKYKAKEDIKLKVIPLISSLDLQDIKQNTELEVKDTMNNWAYVTVQEKQGWVVLEKIEKVE,-0.0549
21,HMDFSYTVGDIDEPIDSRGNSVIMLRKLAWGSNAEKLEIRRWIIDIDSERANKGVTFLTEEGPHNLVRV,0.128
22,HMESVDRIYERVRRYADDVGTAKIPMKELDDDGPLGTAVSRIRERRKRGELTEEWEARFETLPGWTWAA,0.0038
23,HMPKKLIWERTTSKLQLYITQDRYELKTPLMTIPFTSKSKMMVYLQQRYHLDMQEYRQIYDAG,-2.21
